Experimental data published in patent publication US20170267771A1 (BIONOVION HOLDING B V, published 2017).
Values belong to the molecule of their own block, whether it stands above or below them.

How the values were obtained:
[1] = target: human CD27, full length, expressed on cells (CHO-K1.CD27, MCF-7, HEK293T, human T cells) (human) (UniProt P26842); experiment: cell ELISA on CHO-K1.hCD27 cells
[2] = target: human CD27, full length, expressed on cells (CHO-K1.CD27, MCF-7, HEK293T, human T cells) (human) (UniProt P26842); experiment: competition cell ELISA on CHO-K1.CD27 cells; competitor recombinant CD70 fusion protein (0.5 ug/ml)
[3] = target: recombinant soluble hCD27-Fc fusion protein (rhCD27/Fc chimera, R&D systems cat. no. 382-CD) (human) (UniProt P26842); experiment: competition cell ELISA: rhCD27-Fc (0.5 ug/ml) preincubated with antibody, binding to CHO-K1.CD70 cells
[4] = target: recombinant soluble hCD27-Fc fusion protein (rhCD27/Fc chimera, R&D systems cat. no. 382-CD) (human) (UniProt P26842); experiment: competition cell ELISA (CHO-K1.CD70 competition assay): antibody dilutions mixed with rhCD27-Fc chimera, mix put on CHO-K1.CD70 cells, bound CD27-Fc detected with anti-human Ig-HRP; blocked ligand: hCD70 on the cells
[5] = target: T1, human CD27, full length, expressed on cells (CHO-K1.CD27, MCF-7, HEK293T, human T cells) (human, UniProt P26842 20-260); experiment: competition cell ELISA on CHO-K1.CD27 cells; competitor recombinant CD70 fusion protein (0.5 ug/ml)
T1 construct: whole, on cells; Full length cDNA of hCD27 in pCI-neo (CHO-K1), a retroviral vector (MCF-7) or pcDNA3 (HEK293T); Also stands for native CD27 on human T cells in the functional rows; also called hCD27; CHO-K1.hCD27
T1 sequence (looked up): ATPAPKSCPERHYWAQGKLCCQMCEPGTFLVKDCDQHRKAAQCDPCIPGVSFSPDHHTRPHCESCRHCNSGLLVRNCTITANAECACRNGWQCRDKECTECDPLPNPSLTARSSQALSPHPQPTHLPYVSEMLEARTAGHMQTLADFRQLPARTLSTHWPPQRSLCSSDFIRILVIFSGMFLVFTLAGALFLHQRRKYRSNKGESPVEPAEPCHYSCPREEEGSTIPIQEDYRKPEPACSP
Procedure: The CHO-K1.CD27 assay works along the following principles: CHO-K1.CD27 cells were seeded (40,000 cells/well) in a 96-well plate and incubated overnight at 37° C. After medium removal, 50 μl recombinant mouse CD70 fusion Protein (Fc-mCD70) (0.5 μg/ml) and 50 μl of different dilutions of purified anti-hCD27 antibodies were added. […] A cDNA construct encoding this fusion protein was constructed as described by Rowley and Al-Shamkhani, 2004, J Immunol 15:172:6039-46 and used to produce Fc-mCD70 protein in 293T human embryonic kidney cells. The protein was purified by affinity chromatography on Protein A Sepharose (GE Health Care).

[6] = target: T2, recombinant soluble hCD27-Fc fusion protein (rhCD27/Fc chimera, R&D systems cat. no. 382-CD) (human, UniProt P26842 21-192); experiment: competition cell ELISA: rhCD27-Fc (0.5 ug/ml) preincubated with antibody, binding to CHO-K1.CD70 cells
T2 construct: Bought reagent; Fc part of the bought chimera not given
T2 sequence (looked up): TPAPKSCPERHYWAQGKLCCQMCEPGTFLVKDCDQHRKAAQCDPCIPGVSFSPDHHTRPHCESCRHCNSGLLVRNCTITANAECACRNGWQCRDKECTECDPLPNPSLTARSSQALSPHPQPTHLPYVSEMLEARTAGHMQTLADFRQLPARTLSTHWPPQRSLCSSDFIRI
Procedure: Blocking properties of the purified antibodies were studied using two competition assays. The CHO-K1.CD70 assay works along the following principles: CHO-K1.CD70 cells were seeded in a 96 well plate at a density of 40,000 cells/well. The same amount of plates was blocked by adding 300 μl medium/well, and all plates were incubated overnight at 37° C. The following day, the medium-only containing plates were emptied by flicking the plate, and 50 μl/well rhCD27-Fc chimera (0.5 μg/ml) (R&D systems cat. no. 382-CD) was added. To these plates, 50 μl of different dilutions of purified hCD27.15 antibodies were added. After 1 hour incubation at room temperature, the 100 μl rhCD27Fc/antibody mix was transferred to the CHO-K1/CD70 plate(s) from which the medium had been removed. These plate(s) were incubated for 1 hour at room temperature and then washed 3 times with PB ST. 100 μl anti-human Ig (H+L)-HRP conjugate (1:2,500) was added to every well (Promega, cat. no. W4031) and the plates were incubated for 1 hour at 37° C. After 6 final washes with PBST TMB Stabilized Chromagen (Invitrogen, cat. no. SB02) (100 μl/well) was added and the ELISA was read out as outlined above. […] Calculated IC₅₀ values of hCD27.15 and the positive control 1A4, which represent the concentration at which half of the inhibition is observed, are presented in Table 1.

[7] = target: T2, recombinant soluble hCD27-Fc fusion …; experiment: SPR (Biacore 2000), antibody amine-coupled to chip, rhCD27Fc chimera as analyte, 1:1 Langmuir fit
Procedure: The binding properties of hCD27.15 antibodies were characterized in more detail using label-free surface plasma resonance using Biacore 2000 equipment. Low amounts of antibodies were coupled to a CMS sensor chip using amine coupling at pH=4.5, with Rₘₐₓ not exceeding 100 RU. This will, in combination with a high flow level (30 μl/min) yield good fits to the 1:1 Langmuir binding model. A concentration series of rhCD27Fc chimera, ranging from 0.016 nM to 1 nM, was injected for 1 minute at 30 μl/min. The dissociation was monitored for 5 minutes. The running buffer is HEPES-buffered saline with 3 mM EDTA and 0.005% P20 (HBS-EP), pH 7.4. Combination plots were made by subtraction of the signal obtained at the blank flow cell, using BIAeval 3.2. The sensor grams were fitted to a 1:1 Langmuir binding model.

[8] = target: T1, human CD27, full length, expressed on …; experiment: cell ELISA on CHO-K1.hCD27 cells
Procedure: Cell-based ELISA experiments using purified hCD27 antibodies were performed to determine binding activities of hCD27 to cellularly expressed hCD27. In this cell-ELISA, all incubation steps were followed by a wash step with PEST (PBS with 0.01% Tween 20). CHO-K1.hCD27 cells were seeded (40,000 cells/well) in tissue culture plates and incubated overnight at 37° C. The next day, culture medium was removed and cells were incubated for one hour with (dilutions of) purified antibodies at 37° C. Next, cells were washed with PBST and incubated for one hour at 37° C. with 1:1,000 goat-anti-mouse IgG-HRP (Southern Biotechnology, # 1030-05). Subsequently, cells were washed 6 times with PBST and anti-hCD27 immunoreactivity was visualized with 100 μl TMB Stabilized Chromagen (Invitrogen, cat. no. SB02). Reactions were stopped with 100 μl 0.5 M […] and absorbances were read at […] and 620 nm. […] Calculated EC₅₀, representing the concentration at which 50% of the total binding signal is observed are represented in Table 1.

[9] = target: T3, mouse CD27, full length, expressed on retrovirally transduced MCF-7 cells (mouse, UniProt P41272 24-250); experiment: flow cytometry on MCF-7 cells transduced with mouse CD27
T3 construct: whole, on cells
T3 sequence (looked up): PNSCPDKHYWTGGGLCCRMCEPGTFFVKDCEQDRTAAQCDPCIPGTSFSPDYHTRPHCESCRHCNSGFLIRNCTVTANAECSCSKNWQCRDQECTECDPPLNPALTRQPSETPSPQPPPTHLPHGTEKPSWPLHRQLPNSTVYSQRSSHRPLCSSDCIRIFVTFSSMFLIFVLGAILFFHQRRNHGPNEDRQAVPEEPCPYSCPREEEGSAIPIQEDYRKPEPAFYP
Procedure: Binding of hCD27 antibodies to mouse CD27 was determined using MCF-7 breast carcinoma cells that had been retrovirally transduced to stably express the full length cDNA encoding human CD27 or mouse CD27. Empty vector-transduced cells served as a control. Binding of the antibodies was tested by flow cytometric analysis, with validated agonistic anti-hCD27 antibodies 1A4 and CLB CD27/1; and anti-mouse CD27 LG.3A10 (Gravestein et al., 1995, Int Immunol. 7:551-7) as positive controls. These commercially available anti-hCD27 antibodies, which have been reported to harbor agonistic activities, were obtained as described in Table 2.

EC50 [1]: 0.033 µg/mL | IC50 [2]: 0.0937 µg/mL | IC50 [3]: 0.37 µg/mL
Molecule: anti-hCD27, clone 1A4 (Beckman Coulter, cat. no. IM2034) (antibody)

IC50 (read off the curve) [4]: 0.2 µg/mL
Molecule: anti-hCD27, clone 57703 (R&D systems, cat. no. MAB382) (antibody)

IC50 [5]: 0.864 µg/mL | IC50 [6]: 1.55 µg/mL | Kd [7]: 122 nM | EC50 [8]: 0.686 µg/mL | binding result [9]: no binding
B1: monoclonal antibody hCD27.15 (hybridoma hCD27.15, ATCC PTA-11008) (antibody, mouse IgG1, V domains shown)
VH: EVRLQQSGADLVKPGASVKLSCTASGFIIKATYMHWVRQRPEQGLEWIGRIDPANGETKYDPKFQVKATITADTSSSTAYLQLNSLTSDDTAVYYCARYAWYFDVWGAGTTVTVSS
VL: DIQMTQSPASLSASVGDTVTITCRASENIYSFLAWYHQKQGRSPQLLVYHAKTLAEGVPSRFSGSGSGTQFSLKINSLQAEDFGSYYCQHYYGSPLTFGAGTKLEVK
notes: Mouse antibody purified from hybridoma; VH is joined to a mouse IgG1 constant region and VL to the kappa constant region; also called hCD27.15 mAb; anti-hCD27 antibody hCD27.15
